Experimental data from US12168063B2, “Stable, concentrated radionuclide complex solutions” (Advanced Accelerator Applications SA, priority 2018, dated 2024).

Columns and labels:
[1] = Stability study after storage: chemical purity (peptide purity) by RP-UV-HPLC; assay type: physicochemical
[2] = after 72 hours at 25° C.

Compound | stability with respect to chemical purity ([1]; 32° C. for 12 h and 25° for 60 h) | chemical purity ([1]; after 48 hours at 32° C.) [%] | chemical purity ([1]; after 72 hours at 25° C.) [%] | radiochemical purity [2]
C[C@@H](O)[C@H](NC(=O)[C@@H]1CSSC[C@H](NC(=O)[C@@H](Cc2ccccc2)NC(=O)CN2CCN(CC(=O)O)CCN(CC(=O)O)CCN(CC(=O)O)CC2)C(=O)N[C@@H](Cc2ccc(O)cc2)C(=O)N[C@H](Cc2c[nH]c3ccccc23)C(=O)N[C@@H](CCCCN)C(=O)N[C@@H]([C@@H](C)O)C(=O)N1)C(=O)O [DOTA-TATE, DOTA-d-Phe-Cys-Tyr-d-Trp-Lys-Thr-Cys-Thr (cyclo 2,7)] | such high stability was found | 100 | 100 | 
hydrogen [N-{[4,7,10-tris(carboxylato-κO-methyl)-1,4,7,10-tetraazacyclododecan-1-yl-κ^4N^1,N^4,N^7,N^10]acetyl-κO}-D-phenylalanyl-L-cysteinyl-tyrosyl-D-tryptophyl-L-lysyl-L-threonyl-L-cysteinyl-L-threoninato cyclic (2→7)-disulfide(4-)](177Lu)lutetate(1-) [^177Lu-DOTA-TATE] |  |  |  | at least 95%
